The target in test [1] is IL-2Rα-His (Acrobiosystems) (UniProt P01589). Briefly: ELISA on plate-coated IL-2Rα-His, OD450 against antibody concentration (M). On the technique in general: An ELISA detects its analyte on a solid surface through an enzyme-linked reagent.
For test [2], the target named is IL-2Rβγ-His (Acrobiosystems) (UniProt P14784). Briefly: ELISA on plate-coated IL-2Rβγ-His, OD450 against antibody concentration (M).
The target of test [3] is T1, Human PD-1 (Acrobiosystems, Cat #PD1-H5221) (human, UniProt Q15116 25-167).
T1 construct: Bought protein, immobilised on a CM5 chip; also called hPD-1
T1 sequence (Q15116 25-167 limits assumed): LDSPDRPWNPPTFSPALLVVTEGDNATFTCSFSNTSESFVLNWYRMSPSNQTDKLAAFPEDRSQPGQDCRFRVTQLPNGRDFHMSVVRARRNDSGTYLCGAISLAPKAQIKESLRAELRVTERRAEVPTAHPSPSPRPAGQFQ
Briefly: SPR Biacore 8K, human PD-1 amine-coupled on CM5, 1:1 model, pH 7.4. The protocol: (§1) Human PD-1 (Acrobiosystems, Cat #PD1-H5221) at a concentration of 1 μg/ml was immobilized on a CM5 chip (Cytiva) using an amine coupling kit (Cytiva) according to the manufacturer's instructions. […] After each experiment in each concentration cycle, the chip was regenerated with glycine at pH 1.5. At this time, the running buffer used was a pH 7.4 or pH 6.0 HBS-EP+ buffer (0.1 M HEPES, 1.5 M NaCl, 0.03 M EDTA and 0.5% v/v Surfactant P20), and the experimental proteins were diluted in the running buffer.
(§2) The analysis was performed using the 1:1 binding model in Biacore evaluation software version 3.0, and the results of the kinetic constants (ka and kd) and affinity (KD) values are shown in Table 3 below.
On the technique in general: In SPR one partner is held on a chip, and binding of the other changes the refractive index at the surface.

Test [4] addresses T1, Human PD-1 (Acrobiosystems, Cat …). Briefly: SPR Biacore 8K, human PD-1 amine-coupled on CM5, 1:1 model, pH 6.0. As to the method:
as §1, §2

The EC50 is the concentration at which the effect is half-maximal. For orientation: Kd means the free concentration of one partner at which half of the binding sites on the other are occupied at equilibrium, for simple one-to-one binding. The low end stands for tighter binding, the high end for weaker binding. In general, koff refers to the rate constant with which the complex falls apart. A higher koff goes with fast dissociation. Usually kon stands for a measure of how fast the partners come together.

IL-2Rβγ-His (Acrobiosystems), sequence (P14784 27-239 limits assumed, chain 1 of 2): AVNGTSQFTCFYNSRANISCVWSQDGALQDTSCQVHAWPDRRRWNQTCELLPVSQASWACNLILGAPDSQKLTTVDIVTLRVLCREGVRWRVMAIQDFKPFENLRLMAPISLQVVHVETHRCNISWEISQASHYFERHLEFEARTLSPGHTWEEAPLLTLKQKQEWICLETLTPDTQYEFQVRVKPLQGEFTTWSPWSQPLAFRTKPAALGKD
IL-2Rβγ-His (Acrobiosystems), sequence (P31785 23-262 limits assumed, chain 2 of 2, further chain): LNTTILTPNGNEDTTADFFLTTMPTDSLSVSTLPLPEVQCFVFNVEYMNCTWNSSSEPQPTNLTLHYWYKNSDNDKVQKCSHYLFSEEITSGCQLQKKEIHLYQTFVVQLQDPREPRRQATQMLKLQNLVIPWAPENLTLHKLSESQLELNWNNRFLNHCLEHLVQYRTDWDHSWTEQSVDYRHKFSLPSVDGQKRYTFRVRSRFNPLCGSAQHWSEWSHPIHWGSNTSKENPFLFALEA
IL-2Rα-His (Acrobiosystems), sequence (P01589 22-213): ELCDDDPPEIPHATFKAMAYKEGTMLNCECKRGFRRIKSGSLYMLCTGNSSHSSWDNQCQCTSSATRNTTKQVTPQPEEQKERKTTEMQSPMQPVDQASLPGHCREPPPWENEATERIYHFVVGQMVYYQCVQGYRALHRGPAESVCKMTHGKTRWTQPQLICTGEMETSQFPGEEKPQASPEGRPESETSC

Take “Fc-IL2 (control antibody; prepared in-house) (Fc fusion)”: the values for the 50% effective concentration (EC50) in test [1] and in test [2] were 0.325 nM and 7.99 nM, respectively.

B1: 1G1-h70 (antibody, V domains shown)
VH: QVQLVQSGAEVKKPGASVKVSCKASGYTFTGYWMHWVRQAPGQGLEWIGMIHPNSDTTTYNEKFKNRVTMTRDTSISTAYMELSRLRSDDTAVYYCAGTDQAAWFAFWGQGTTVTVSS
VL: DIVMTQTPLSLSVTPGQPASISCRSSQNIVHSQGDTYLEWYLQKPGQSPQLLIYKVSKRFSGVPDRFSGSGSGTDFTLKISRVEAEDVGVYYCFQGSHVPWTFGGGTKVEIK
notes: also called humanized anti-PD-1 antibody 1G1-h70; anti-PD-1 antibody
In test [3], B1 had a Kd of 0.237 nM, a koff of 3.51e-05 s⁻¹ and a kon of 148000 M⁻¹ s⁻¹. In test [4], binding was characterised by a dissociation constant (Kd) of 0.0481 nM, the off-rate constant (koff) turned out to be 1.38e-05 s⁻¹ and the association rate constant (kon) stood at 286000 M⁻¹ s⁻¹.

(Values after US20250145714A1 (GENUV, published 2025).)
